Source: US20240327530A1 (ICHNOS SCIENCES, published 2024)

T1: Mouse IL-1RAP, membrane-bound on NIH-3T3 cells (mouse, UniProt Q61730 21-570)
T1 construct: Endogenous protein on cells
T1 sequence (looked up): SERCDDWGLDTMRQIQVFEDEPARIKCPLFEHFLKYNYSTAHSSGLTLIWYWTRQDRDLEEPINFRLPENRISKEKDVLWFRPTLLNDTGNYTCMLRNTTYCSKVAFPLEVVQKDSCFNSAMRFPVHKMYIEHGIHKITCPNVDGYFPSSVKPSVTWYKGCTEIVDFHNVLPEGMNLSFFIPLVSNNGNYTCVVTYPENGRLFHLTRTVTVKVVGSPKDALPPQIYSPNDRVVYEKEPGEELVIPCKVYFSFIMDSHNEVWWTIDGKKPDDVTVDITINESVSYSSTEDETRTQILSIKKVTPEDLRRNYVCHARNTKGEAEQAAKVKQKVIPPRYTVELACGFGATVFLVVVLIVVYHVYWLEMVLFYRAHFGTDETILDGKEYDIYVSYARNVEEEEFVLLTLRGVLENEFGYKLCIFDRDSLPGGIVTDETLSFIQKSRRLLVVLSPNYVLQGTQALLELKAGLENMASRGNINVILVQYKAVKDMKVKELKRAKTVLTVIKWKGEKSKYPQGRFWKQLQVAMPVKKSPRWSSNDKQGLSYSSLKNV

T2: Human IL-1RAP, membrane-bound on human cells (HaCaT, dermal fibroblasts, neutrophils, PBMC, whole blood) (human, UniProt Q9NPH3 21-570)
T2 construct: Endogenous protein on cells
T2 sequence: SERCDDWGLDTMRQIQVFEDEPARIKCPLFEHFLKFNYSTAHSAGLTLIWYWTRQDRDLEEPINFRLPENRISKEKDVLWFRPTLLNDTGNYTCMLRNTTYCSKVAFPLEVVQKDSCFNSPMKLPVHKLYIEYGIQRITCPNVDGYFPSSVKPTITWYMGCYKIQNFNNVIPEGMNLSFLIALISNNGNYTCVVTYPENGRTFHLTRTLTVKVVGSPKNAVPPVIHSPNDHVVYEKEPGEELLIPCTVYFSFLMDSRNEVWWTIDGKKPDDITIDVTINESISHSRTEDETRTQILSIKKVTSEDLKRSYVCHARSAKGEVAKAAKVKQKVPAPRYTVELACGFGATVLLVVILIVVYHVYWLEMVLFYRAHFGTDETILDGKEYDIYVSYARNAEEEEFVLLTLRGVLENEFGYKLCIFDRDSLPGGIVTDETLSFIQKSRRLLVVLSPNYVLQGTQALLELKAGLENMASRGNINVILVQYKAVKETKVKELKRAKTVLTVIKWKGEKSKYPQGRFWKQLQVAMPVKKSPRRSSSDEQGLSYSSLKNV

B1: Anti-IL-1RAP-C3-A3 mmIgG2a LALA (antibody, V domains shown)
VH: EVQLLESGGGLVQPGGSLRLSCAASGFIFSHYGMSWVRQAPGKGLEWVSAISYDGEGTLYADSVKGRFTISRDNSKNTLYLQMNSLRAEDTAVYYCARFRYYTAFDYWGQGTLVTVSS
VL: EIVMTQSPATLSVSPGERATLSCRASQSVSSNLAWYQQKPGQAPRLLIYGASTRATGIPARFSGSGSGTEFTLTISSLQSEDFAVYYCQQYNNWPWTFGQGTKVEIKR
notes: also called anti-IL-1RAP-C3-A3 mouse IgG2a LALA
B2: Anti-IL-1RAP-C8-RecC-ES-IgG1LALA (antibody, V domains shown)
VH: QVQLVQSGAEVKKPGSSVKVSCKASGSPAEPYAIQWVRQAPGQGLEWMGYIIPSLGGYDYAQKFQGRVTITADESTSTAYMELSSLRSEDTAVYYCARGQTLYESGRQFDIWGQGTLVTVSS
VL: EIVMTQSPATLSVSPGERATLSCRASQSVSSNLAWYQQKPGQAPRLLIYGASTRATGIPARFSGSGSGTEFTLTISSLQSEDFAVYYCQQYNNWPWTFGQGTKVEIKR
notes: also called ISB 880-C8-recC-ES

Legend:
[1] = molecular target: T1, Mouse IL-1RAP, membrane-bound on …; assay: flow cytometry on NIH-3T3 cells, PE-Cyanine7 secondary antibody, relative mean fluorescence intensity (isotype subtracted); upper of two curves
Description: In brief, cells were harvested, counted, and plated at 50′000 cells/well in a 96-well round-bottom plate. The plate was centrifuged at 350 g for 3 minutes and the cells were resuspended in […] of FACS® buffer (PBS (1×)+2.5% FCS+2 mM EDTA+0.05% NaN₃) containing various concentrations (ranging from 20 to 0.0001 μg/ml) of either anti-mouse IL-1RAP_candidate_1 or Isotype control_2 antibodies. Stained cells were incubated for 30 minutes at 4° C., washed twice with FACS® buffer at 350 g for 3 min and resuspended in 100 μl of a monoclonal anti-mouse IgG PE-Cyanine7 secondary antibody (Biolegend, 407114) diluted 1/200 in FACS® buffer. Cells were then washed twice, and resuspended in 200 μl of FACS® buffer containing SYTOX® Green dead cell stain (THERMO FISHER […]®, S34860) and samples were acquired on a CYTOFLEX® instruments (Beckman Coulter). The cells were gated based on size on FSC vs SSC and analysed for PE-Cyanine7-geometric mean (geomean) fluorescence intensity using FLOWJO® software. Finally, relative geomean fluorescence intensity was calculated by subtracting fluorescence of anti-mouse IL-1RAP_candidate_1 per fluorescence of Isotype control_2. As depicted in FIG. 11, anti-mouse IL-1RAP_candidate_1 antibody recognizes membrane-bound IL-1RAP expressed on NIH-3T3 cell line. […] Each data point is a measurement for a given cell line. […]

[2] = molecular target: T2, Human IL-1RAP, membrane-bound on human …; assay: flow cytometry on human neutrophils, nonlinear sigmoidal regression
Description: In brief, cells were harvested, counted, and plated at 50,000 cells/well in a 96-well round-bottom plate. The plate was centrifuged at 350 g for 3 minutes and the cells were resuspended in 50 μl of FACS® buffer (PBS (1×)+2.5% FCS+2 mM EDTA+0.05% NaN₃) containing various concentrations (ranging from 50 to 0.00003 μg/ml) of either anti-human IL-1RAP_candidate_1 or Isotype control_5 antibodies. Stained cells were incubated for 30 minutes at 4° C., washed twice with FACS® buffer at 350 g for 3 min and resuspended in […] of a monoclonal anti-human IgG PE-Cyanine7 secondary antibody (Biolegend, 409316) diluted 1/200 in FACS® buffer. Cells were then washed twice and resuspended in 200 μl of FACS® buffer containing SYTOX® Green dead cell stain (THERMO FISHER […]®, S34860) and samples were acquired on a CYTOFLEX® instruments (Beckman Coulter). The cells were gated based on size on FSC vs SSC and analyzed for PE-Cyanine7-geometric mean (geomean) fluorescence intensity using FLOWJO® software. Finally, relative geomean fluorescence intensity was calculated by subtracting fluorescence of anti-human IL-1RAP_candidate_1 per fluorescence of Isotype control_5. As depicted in FIGS. 6A, 6B, 6C, 6D, and 6E, anti-human IL-1RAP_candidate_1 antibody recognizes membrane-bound IL-1RAP expressed on HaCaT cell line and all primary cells. Multiple independent experiments were performed using multiple donors. […]

Row | Binder | EC50 (read off the curve) [1] | Kd [2]
1 | B1 | ~0.01 µg/mL | –
2 | B2 | – | 1.67 nM
